# Reference: the nanobody polyreactivity screen of Harvey et al. (2022)
# Assay: yeast display, Sf9 membrane polyspecificity reagent, FACS + sequencing; frameworks hold sequencing errors
# Procedure, shortened: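 A synthetic nanobody library was expressed on Saccharomyces cerevisiae BJ5465 by galactose induction for 36–48 hours. The library was stained for 1 hour at 4 °C with 10% biotinylated, detergent-solubilized Sf9 membrane reagent and enriched with streptavidin microbeads before FACS. Low and high (top ~1%) gates were set on anti-HA fluorescence for expression and streptavidin fluorescence for reagent binding, and each polyreactivity label reflects the gate of origin.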
row,Sequence,polyreactivity (PSR sort gate)
1,QVQLVESGGGLVQAGGSLRFSCAASGITFSSYGMGWYRQAPGKERELVAAISWDSGSTYYADSVKGRFTISRDNAKNTVYLQMNSLKPEQTAVYYCNAVYYSVYRFDYWGQGTQVTVSS,high polyreactivity
2,QVQLVESGGGLVQAGGSLRLSCAASGSTFKTYVMGWYRQAPGKERELVAGISDSGGTTYYADSVKGRFTISRDNAKNTVYLQMNSLKPEDTAGYYCAAVLYRRYTRARLDYWGQGTQVTVSS,high polyreactivity
3,QVQLVESGGGLVQAGGSLRLSCAASGRIFVGYAMGWYRQAPGKVREFFAAITWSGGSTSYADSVKGRFTISRDNAKNTVYLQKNSLKPEDTAVYYCNARRYYYFGLSLYEYDYWGQGTQVTVSS,low polyreactivity
4,QVQLVESGGGLVQAGGSLRLSCAASGINFRLNAMGWYRQAPGKERELVAAIRRRGGSTYYADSVKGRFTISRDNAKNTVYLQMNSLIPEDTAVYYCAKDPHGSDFGYWGQGNQVTVSS,low polyreactivity
5,QVQLVESGGGLVQAGGSLRLSSAASGRIFRGNVMGWYRQAPGKERELVAVIRSSSGRTYYADSVKGRFTISRDNAKNTVYLQMNSLKPEDTAVYDCAAKSVWGQGTQVTVSS,high polyreactivity
6,QVQLVESGGGLVQAGGSLRLSCAASGRIFPAYAMGWYKQAPGKERELVASIRRGGITYADSVKGRFTISRDNAKNTVYLQMNSLKPEDTAVYYCNADYRGWGYHMDYWGQGTKVTVSS,low polyreactivity
7,QVQLVESGGGLVQAGGSLRLSCAASGYTFYIYAMGWYIQAPGKERELVAAISWTDGSTYYADSVKGRFTISRDNAMNSVYLQMNSLKPEHTAVYYCAKTSLYAGAKEYDYWGQGTQVTVSS,low polyreactivity
8,QVQLVESGGGLVQAGGSLRLSCAASGLIFKYNGRGWNRQAPGNVRELGAAITKRGGSTYYADSVKGRFTISRDKAKNTVYLQMNSLKPEDTAVYYCAAGRAGRKDYYWGQGTQVTVSS,high polyreactivity
9,QVQLVESGGGLVQAGGSLRLSCAASGSTFNLYAMGWYRQAPGKERELVASISRSGVSTYYADSVKGRFTISRDNAKNTVYLQMNSLKPEDTAVYYCAVDKVLYRLYPGMDYWGQGTQVTVSS,low polyreactivity
10,QVQLVESGGGLVQAGGSLRLSCAASGSIFGYNAMGWSRQAPGKERELVAGITSGTSTNYADSVKGRFTISRDNAKNTVYLQMNSLKPEDTEVYYCARTSYRFYRKRYYWGQGTQVTVSS,high polyreactivity
11,QVQLVESGGGLVQAGGSLRLSCAASGLTFYVYAMGWYRQAPGKERELVAAISSGGRTYYADSVKGRFTISRDNAKNTVYLQMNSLKPEDTAVYYCAARSPVWRTTEDYWGQGTQVTVSS,high polyreactivity
12,QVQLVESGGGLVQAGGSLRLSCAASGLIFKVYALGWYRQAPGQERELVAAITYSGGSTDYADSVKGRFTISRDNAKNTVYLQMNSLKPEDTAVYYCNVETVGHVNSYGYDYWGQGTQVTVSS,low polyreactivity
13,QVQLVESGGGLVQAGGSLRLSCAASGLTFAWYTMGWYRQAPGKERELVADIDQSGSTYYADSVKGRFTISRDNAKNTVYLQMNSLKPEDTAVYYCNAYWSNFLYPFDYWGQGTQVTVSS,high polyreactivity
14,QVQLVESGGGLVQAGGSLRLSCAASGSTIFAYAMGWYRQAPGKERELVAAIRRGGTSTYYADSVKGRFTISRDNAKNTVYLQMNSLKPEDTAVYYCNKAYITKRGVSGSNDYWGQGTQVTVSS,low polyreactivity
15,QVQLVESGGGLVQAGGSLRLSCAASGSTFYVYAMGWYRQAPGKERELVAAITSGSSTYADSVKGRFTISRDNAKNTVYLQMNSLKPEDTAVFYCNALSRTAWSYYLYPSTPFDYWGQGTQVTVSS,low polyreactivity
16,QDQLVESGGGLVQAGGSLRLSCAASGRTLWRNTMGWYRQAPGKERELVAAITTRGGSTYYADSVKGRFTISRDNAKNTVYLQLNSLKPEDTAVYYCAARTYTGEGSGRFYYWGQGTQVTVSS,high polyreactivity
17,QVQLVESGGGLVQAGGSLRLSCAASGRTFYKNAMGWYRQAPGKERELVAAISSRGGRTTYADSVKGRFTISRDNAKNTVYLQMNSLKPEDTAVYYCATDWAQVYHGTTKYYYWGQGTQVTVSS,high polyreactivity
18,QVQLVESGGGLVQAGGSLRLSCAASGIIMRKYAMGWYRQAPGKERELVAAITTRGSRTYYADSVKGRFTISRDNAKNTVYLQMNSLKPEDTAVYYCAADRYTVRMDYWGQGTQVTVSS,high polyreactivity
19,QVQRVESGGGLVQAGGSLLLSCAASGRIFVTYAKGWYRQAPGKERDLVASITGGGSRYYADSVKGRVTISRDKAKTTVYVQMTRLKPEDPAVNYCAAKSRSWYFGYGYWGQGTQVTVSS,high polyreactivity
20,QVQLVESGGGLVQAVGSLRLSCAASGSIFQPYAMGWYRQAPGKERELVAAISIGDSTNYADSVKGRFTISRDNAKNTVYLQMNSLKPEDTAVYYCNTTGEYYDYWGQGTQVTVSS,low polyreactivity
21,QVQLVESGGGLVQAGGSLRLSCAASGFTFVGNAMGWYRQAPGKARELVAAIRWTDGSTYYADSVKGRFTISRDNAKNTVYLHMNSLKPEDTAVYYCAKDYRDYARAGDYNVKQADDYWGQGTQVTVSS,low polyreactivity

row,Sequence,polyreactivity (PSR sort gate)
1,HVQLVESGGGLVQAGGSLRLSCAASGFTFPANAMGWYRQAPGKERELVAAISSSGGTYYADSVMGRFTISRDNAKNTVYLQMTSLKQEDTAVYYCAAYRFKYYYWGQGTQVSVSS,high polyreactivity
2,HVQLVESGGGLVQAGGSLRLSCAASGSIFIIYAMGWYRQAPGKERELVAAMDWSDGSTYYADSVKGRFTISRDNANNTVYLQMNSLKPEDTAVYYCNTQSRTLGWPLDYWGQGTQVTVSS,high polyreactivity
3,QVQLVESGGGLVQAGGSLRLSCAASGSTFNINAMGWYRQAPGKERELVADITSGGSTNYADSVKGRFTISRDNAKNTVYLQMNSLKPEDTAVYYCNADVLYGDSYRGGYCGQGTQVTVSS,low polyreactivity
4,QVQLVESGGGLVKAGGSLRLSCAASGSIFRYYTMGWYRQAPGKEWELVAAINGSGGSTYYADSVKGRFTISRDTAKNTVYLQMNSLKPEDTAVYYCNRVTKEYGLRQYYYWGQGTQVTVSS,low polyreactivity
5,QVQLVESGGGLVQAGGSLRLSCAASGFTFSWYAMGWYRQAPGKERELVAAISRRGGSTYYADSVKGRFTISRDIAKNTVYLQMNSLKPEDTAVYYCNAALTYDYNYWGQGTQVTVSS,high polyreactivity
6,QVQLVESGGGLVQAGGSLRLSCAASGFTIWPYAMGWYRQPPGKERELVAGITRNGGSTYYADSVKGRFTISRDNAKNTVYLQMNSLKPEDTAVYYCNTKYAVEFDYWGQGTQVTVSS,low polyreactivity
7,QDQLVESGGGLVQAGGSLRLSCAAYGRTFVPYAMGWYRQAPGKEREFVAVITWGGGSTYYADSVKGRFTISRDNAKNTVYLQMNSLKPEDTAVYYCAARNRRATGLGSRYGYWGQGTQVTVSS,high polyreactivity
8,QVQLVESGGGLVQAGGSLRLSCAASGSIFSTYAMGWYRQAPGKERELVAAIRTWSGGRTYYADSVKGRFTISRDNAKNTVYLQMNSLKPEDTAVYYCAAQFSRYRDYGLNYYYWGQGTQVTVSS,high polyreactivity
9,QVQLVESGGGLVQAGGSLRLSCAASRLTFYGYGMGWYRQAPGKERELVASITSGGNTYYADSVKGRFTISRDNAKNTVYLRMNSLKPEDTAVYYCAVTAIALYYSSGYYWGQGTQVTVSS,low polyreactivity
10,QVQLVESGGGLVQAGGSLRLSCAASGRIFRTYAMGWYRQAPGKERELVAGITWRGTSTYYADYVKGRFTISRDNAKNTVYLQLNSLKPEDTAVYYCAAEWKGYYVHDYWGQGTQVTVSS,high polyreactivity
11,QVQLVESGGGLVQAGGSLRLSCAASGGTFNQYAMGWYRQAPGKEREFVASISRRGGSTYYADSVKGRFTISRDNAKNTVYLQMNSLKPEDTAVYYCAADAFFRLDYYYWGQGTQVTVSS,high polyreactivity
12,QVQLVESGGGLVQAGGSLRLSCAASGRIFTYYAMGWYRQVPGKERELVAGISGSGTSTYYADSVKGRFTISRDNAKNTVYLQMNSLKPEDTAVYYCAAIRRQKGLWDYYYWGQGTQVTVSS,low polyreactivity
13,QVLLQESGGGLVQAGGSLRLSCAASGSIFLFYTMGWYRQAPVKEREFVAGITLGTTTYNADSVKGRFTISRDNVKNTVYLQMNSLKPEDTAVYYCAVAVGHYTEFWYWGQGTQVTMSS,high polyreactivity
14,QVQLVESGGGLVQAGGSLRLSCAASGRTFRANAMGWSRQAAGKERELVAAITWDGGSTYYADSVKGRFTISRDNAKNTVYLQMNSLKPEDTAVYYCAAESWFLRWYRYDYWGQGTQVTVSS,low polyreactivity
15,QVQLVESGGGLVQAGGSLRLSCAASGRTFSGYAKGGYRQAPGKERELVAAITSSGSSTYYADSVKGRFTISRDNAKNTVYLQMNSLKPEDTAVYYCAATPQAHSERYYYQRKYDYWGQGTQVTVSS,low polyreactivity
16,QVQLVESGGGLVQAGGSLRLSCAASGSTFGLYAMGWYRQAPGKERELVAAISSGGSTYYADSVKGRFTISRDNAKNTVYLQMNSLKPEDTAVYYCATGYWAYTIEYYYWGQGTQVTVSS,low polyreactivity
17,QVQLVDSGGGLVQAGGSLRLTCGSSGSIFYYYVMGLYIQAHGKERELVAAISSGGGTNYSDSVKGRFTISRYNAKNTVYLQMNSLKPEDTAVYYCAKASAYGLANDYDYCGQGTQVTVSS,low polyreactivity
18,QVQLVESGGGLVQAGGSLRLSCAASGSIFFLYAMGWYRQAPGKEWELVAAISGGGGSTYYADSVKGRFTISRDNAKNTVYFQMNCLKPEDTAVYNSAARTRVTKREYDYWGQGTQVTVSS,high polyreactivity
19,QVHLVESGGGLVQAGGSLRLSCAASGRIMVHNAMGWYRQAPGKERELVAVITARGASTYYADSVKGRFTISRDNAKNTVYLQMNSLKPEDTAVYYCATDKRPKYYNQYDYWGQGTQVTVSS,low polyreactivity
20,QFQLVESGGGLVQAGGSLRISCAASGRIFYRYAMGWYRPAPGKERELVASIRFSVGSTYYADSVKGRFTISRDNAKNTVYLQMNSLKPEDTAVYYCAADYTKYYRRYYYWGQGTQVTVSS,high polyreactivity
